# T1: His-HT1 (recombinant Arabidopsis HT1 protein kinase, wild type, with His tag)
# T1 chain: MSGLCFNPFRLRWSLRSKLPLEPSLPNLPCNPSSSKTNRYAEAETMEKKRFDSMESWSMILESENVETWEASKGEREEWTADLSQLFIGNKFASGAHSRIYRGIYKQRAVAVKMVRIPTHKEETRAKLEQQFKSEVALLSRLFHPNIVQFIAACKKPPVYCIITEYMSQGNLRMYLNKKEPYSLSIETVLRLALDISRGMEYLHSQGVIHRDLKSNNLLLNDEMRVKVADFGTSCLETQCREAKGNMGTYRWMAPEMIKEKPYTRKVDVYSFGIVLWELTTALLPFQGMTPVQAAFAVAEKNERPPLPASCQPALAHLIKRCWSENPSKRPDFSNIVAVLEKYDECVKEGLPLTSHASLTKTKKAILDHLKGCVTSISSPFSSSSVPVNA
# Tests used:
# [1] = molecular target: T1, His-HT1 (recombinant Arabidopsis HT1 …)
# [2] = tested on: MPK4/12, HT1 and CBC1 recombinant proteins; experiment: in vitro phosphorylation assay: NaHCO3-dependent down-regulation of HT1-mediated CBC1 phosphorylation; format: biochemical, Arabidopsis; conditions: isoform replaces wild type protein or is added; 20 mM NaHCO3 vs NaCl control, 30 min
# Method: We tested whether this HT1-mediated activation of CBC1 is inhibited by CO2/bicarbonate by adding NaHCO3 in in vitro phosphorylation reactions. […]
# FIG. 2. […] Histone was used as an artificial protein kinase substrate. • (B) MPK4, HT1 and CBC1 proteins were incubated with NaHCO3 at the indicated concentrations for 30 min, and in vitro phosphorylation assays were performed. • (C) CBC1 band intensities as shown in (B) were measured using IMAGEJ™, n=4 experiments, error bars show ±S.D. • (D) MPK4, HT1 and CBC1 proteins were incubated in reaction buffers adjusted at different pH (6.5 to 8.5) for 30 min, and in vitro phosphorylation assays were performed. • (E) CBC1 band intensities and the density-ratios of ‘+NaHCO3’ to ‘—NaHCO3’ (=+NaCl controls) for each pH condition
# FIG. 3. […] Ambient CO2 concentrations are indicated by the top bars. n=7 experiments, error bars show ±SEM. • (C) Recombinant HT1 (wild type, HT1-G89R or HT1-R173Q) and CBC1 proteins were incubated with MPK4 in the presence or absence of 20 mM NaHCO3 or 20 mM NaCl (−controls) for 30 min, and in vitro phosphorylation assays were performed. • (D) Recombinant MPK12, CBC1 and HT1 (WT or R102K) proteins were incubated with or without 20 mM NaHCO3 or 20 mM NaCl (−controls) for 30 min, and in vitro phosphorylation assays were performed. Histone was used as an artificial kinase substrate. • (E) HT1 (WT or A109V) proteins were used for in vitro phosphorylation assays. Proteins were incubated with or without 20 mM NaHCO3 or 20 mM NaCl (−controls) for 30 min. • (F) Stomatal conductances were analyzed using intact plants of Arabidopsis (Col-0 (WT), cbc1 cbc2, ht1-A109V and cbc1 cbc2 ht1-A109V). CO2 concentration changes were applied as indicated on top (p.p.m.). […]
# [3] = tested on: CBC1; experiment: HT1-dependent CBC1 kinase activation, in vitro phosphorylation and in-gel kinase assays; format: biochemical, Arabidopsis; conditions: kinase inactive isoforms, histone as substrate
# Source text: A previous study reported that the HT1 kinase phosphorylates the CBC1 kinase in vitro (13). Whether this phosphorylation of CBC1 affects CBC1 activity remains unknown. We confirmed CBC1 phosphorylation by HT1 using recombinant His-HT1 and GST-CBC1 proteins by in vitro phosphorylation assays using radioactive ^32P-ATP (FIG. 5). Moreover, phosphorylation levels of histone, an artificial kinase substrate, were increased at the same time. […] In-gel kinase assays were pursued to test this hypothesis and provide direct evidence of HT1-dependent CBC1 kinase activation (FIG. 1A). […] We identified in vitro phosphorylation sites in CBC1 using mass spectrometry by analyzing recombinant CBC1 protein in the presence or absence of HT1 (FIG. 1C). We found two HT1-dependent phosphorylation sites (Thr-256 and Ser-280) that lie within or near the activation-loop of CBC1.
# FIG. 1. […] Histone was used as an artificial phosphorylation substrate of CBC1. • (C) Recombinant CBC1 proteins were incubated with or without HT1 and ATP, and CBC1 phosphorylation sites were identified by mass spectrometry. The red fonts indicate HT1-dependent phosphorylation sites. CBC1 autophosphorylation sites detected without HT1 addition are labeled in black fonts. […] CBB gels show loading controls.
# [4] = tested on: MPK4 and HT1; experiment: in vitro pull-down assay, His-HT1 with GST-MPK4; format: binding, Arabidopsis; conditions: pull-down with or without 20 mM NaHCO3
# Method: We therefore investigated a possible binding between MPK4 and HT1 and the effect of HCO3^−.
# FIG. 4. […] CO2 concentration changes were applied as indicated on top (p.p.m.). n=6 experiments, error bars show ±SEM. • (J) Model of plant stomatal CO2 sensor and signaling (see text).
# FIG. 6. […] Precipitated proteins were washed with buffers supplemented with NaHCO3 at the indicated concentrations (0, 2 or 20 mM). See FIG. 4d for an independent experiment. To control for effects of Na^+, 20 mM NaCl (0 mM NaHCO3) for lanes 1 and 4 were included in the buffers; and 18 mM NaCl (2 mM NaHCO3) for lane 3 were included in buffer.
molecule,measurement,setting,value
MPK12 (recombinant Arabidopsis MAP kinase MPK12) (protein) MSGESSSGSTEHCIKVVPTHGGRYVQYNVYGQLFEVSRKYVPPIRPIGRGACGIVCAAVNSVTGEKVAIKKIGNAFDNIIDAKRTLREIKLLRHMDHENVITIKDIVRPPQRDIFNDVYIVYELMDTDLQRILRSNQTLTSDQCRFLVYQLLRGLKYVHSANILHRDLRPSNVLLNSKNELKIGDFGLARTTSDTDFMTEYVVTRWYRAPELLLNCSEYTAAIDIWSVGCILGEIMTGQPLFPGKDYVHQLRLITELVGSPDNSSLGFLRSDNARRYVRQLPRYPKQQFAARFPKMPTTAIDLLERMLVFDPNRRISVDEALGHAYLSPHHDVAKEPVCSTPFSFDFEHPSCTEEHIKELIYKESVKFNPDH,"CBC1 and histone phosphorylation in vitro (HT1 + CBC1 + MPK12, 20 mM NaHCO3; FIG. 2A, n>6)",[1],"when MPK4 or MPK12 were added to the reaction, we found that the addition of NaHCO3, but not NaCl, inhibited both CBC1 phosphorylation and histone phosphorylation in vitro"
same,"HT1 kinase activity, in vitro phosphorylation assay with or without 20 mM NaHCO3 (FIG. 4B, n=3)",[1],"HT1 kinase activity was inhibited in response to NaHCO3, only in the presence of MPK12"
MPK12-K70R: kinase inactive MPK12 isoform (protein) MSGESSSGSTEHCIKVVPTHGGRYVQYNVYGQLFEVSRKYVPPIRPIGRGACGIVCAAVNSVTGEKVAIRKIGNAFDNIIDAKRTLREIKLLRHMDHENVITIKDIVRPPQRDIFNDVYIVYELMDTDLQRILRSNQTLTSDQCRFLVYQLLRGLKYVHSANILHRDLRPSNVLLNSKNELKIGDFGLARTTSDTDFMTEYVVTRWYRAPELLLNCSEYTAAIDIWSVGCILGEIMTGQPLFPGKDYVHQLRLITELVGSPDNSSLGFLRSDNARRYVRQLPRYPKQQFAARFPKMPTTAIDLLERMLVFDPNRRISVDEALGHAYLSPHHDVAKEPVCSTPFSFDFEHPSCTEEHIKELIYKESVKFNPDH,NaHCO3-mediated down-regulation of CBC1 phosphorylation/activity with the protein isoform in the reaction,[2],retained the ability to mediate CO2/bicarbonate-induced CBC1 inhibition
"CBC1-D253A: kinase inactive CBC1 isoform (protein, UniProt Q9SSA4 1-411, looked up, variant D253A) Serine/threonine-protein …: MKEKAESGGGVGYVRADQIDLKSLDEQLQRHLSKAWTMEKRKSLSDGEDNVNNTRHNQNNFGHRQLVFQRPLLGGGYSNNNNSSKNDIIRSTEVEKSRREWEIDPSKLIIKSVIARGTFGTVHRGIYDGQDVAVKLLDWGEEGHRSDAEIASLRAAFTQEVAVWHKLDHPNVTKFIGAAMGTSEMSIQTENGQMGMPSNVCCVVVEYCPGGALKSFLIKTRRRKLAFKVVIQLSLDLARGLSYLHSQKIVHRAVKTENMLLDKSRTLKIADFGVARLEASNPNDMTGETGTLGYMAPEVLNGSPYNRKCDVYSFGICLWEIYCCDMPYPDLSFSEVTSAVVRQNLRPEIPRCCPSSLANVMKRCWDANPEKRPEMEEVVAMLEAIDTSKGGGMIPPDQQQGCFCFRRHRGP",HT1-dependent activation/phosphorylation of CBC1,[3],reduced phosphorylation level compared to wild type CBC1
"His-BdMPK5 (D90N), chill1 variant isoform (protein) MRMEGGGAGPAAAAAAGGAHGLGEAQIKGTLTHGGRYVQYNVYGNLFEVSAKYVPPIRPVGRGACGIICAAINVQTREEVAIKKIGNAFNNQIDAKRTLREVKLLRHMNHENVISIKDIIRPPRRENFNDVYIVYELMDTDLHHLLRSNQPLTDDHCQYFLYQVLRGLKYVHSANVLHRDLRPSNLLLNAKCDLKIGDFGLARTTTETDFMMEYVVTRWYRAPELLLNCSEYTGAIDMWSVGCILGEIATREPLFPGKDYVHQLRLITELLGSPDDTSLGFLRSDNARRYVRSLPQYPKQQFRSRFPNMSSGAMDLLERMLVFDPNKRITVDEALCHPYLASLHEINDEPVCPAPFSFDFEQPSFTEEDIKELIWRESVKFNPEPIH","CBC1 phosphorylation, in vitro phosphorylation assay with GST-CBC1, His-HT1 and His-BdMPK5 (D90N), with or without 20 mM NaHCO3 (n=2)",[1],The BdMPK5-D90N variant protein abrogated the high CO2/bicarbonate-mediated downregulation of CBC1 phosphorylation
"His-BdMPK5 (WT), recombinant Brachypodium distachyon BdMPK5 (protein) MRMEGGGAGPAAAAAAGGAHGLGEAQIKGTLTHGGRYVQYNVYGNLFEVSAKYVPPIRPVGRGACGIICAAINVQTREEVAIKKIGNAFDNQIDAKRTLREVKLLRHMNHENVISIKDIIRPPRRENFNDVYIVYELMDTDLHHLLRSNQPLTDDHCQYFLYQVLRGLKYVHSANVLHRDLRPSNLLLNAKCDLKIGDFGLARTTTETDFMMEYVVTRWYRAPELLLNCSEYTGAIDMWSVGCILGEIATREPLFPGKDYVHQLRLITELLGSPDDTSLGFLRSDNARRYVRSLPQYPKQQFRSRFPNMSSGAMDLLERMLVFDPNKRITVDEALCHPYLASLHEINDEPVCPAPFSFDFEQPSFTEEDIKELIWRESVKFNPEPIH","CBC1 protein kinase activity, in vitro phosphorylation assay with GST-CBC1, His-HT1 and His-BdMPK5, with or without 20 mM NaHCO3 (n=2)",[1],HT1 and CBC1 together with the BdMPK5 protein showed a high CO2/bicarbonate-induced down-regulation of the CBC1 protein kinase activity
HT1-K113W: kinase inactive HT1 mutant (protein) MSGLCFNPFRLRWSLRSKLPLEPSLPNLPCNPSSSKTNRYAEAETMEKKRFDSMESWSMILESENVETWEASKGEREEWTADLSQLFIGNKFASGAHSRIYRGIYKQRAVAVWMVRIPTHKEETRAKLEQQFKSEVALLSRLFHPNIVQFIAACKKPPVYCIITEYMSQGNLRMYLNKKEPYSLSIETVLRLALDISRGMEYLHSQGVIHRDLKSNNLLLNDEMRVKVADFGTSCLETQCREAKGNMGTYRWMAPEMIKEKPYTRKVDVYSFGIVLWELTTALLPFQGMTPVQAAFAVAEKNERPPLPASCQPALAHLIKRCWSENPSKRPDFSNIVAVLEKYDECVKEGLPLTSHASLTKTKKAILDHLKGCVTSISSPFSSSSVPVNA,HT1-dependent activation/phosphorylation of CBC1,[3],did not activate CBC1
HT1-G89R: recombinant HT1 protein kinase isoform with dominant G89R mutation (protein) MSGLCFNPFRLRWSLRSKLPLEPSLPNLPCNPSSSKTNRYAEAETMEKKRFDSMESWSMILESENVETWEASKGEREEWTADLSQLFIRNKFASGAHSRIYRGIYKQRAVAVKMVRIPTHKEETRAKLEQQFKSEVALLSRLFHPNIVQFIAACKKPPVYCIITEYMSQGNLRMYLNKKEPYSLSIETVLRLALDISRGMEYLHSQGVIHRDLKSNNLLLNDEMRVKVADFGTSCLETQCREAKGNMGTYRWMAPEMIKEKPYTRKVDVYSFGIVLWELTTALLPFQGMTPVQAAFAVAEKNERPPLPASCQPALAHLIKRCWSENPSKRPDFSNIVAVLEKYDECVKEGLPLTSHASLTKTKKAILDHLKGCVTSISSPFSSSSVPVNA,HCO3- dependent binding of HT1 isoform with MPK4,[4],disrupts the HCO3^−-dependent binding with MPK4
same,NaHCO3-mediated down-regulation of CBC1 phosphorylation/activity with the protein isoform in the reaction,[2],no NaHCO3-mediated inhibition of CBC1 activity
